This assay has as its target Nodal (mouse) (UniProt P43021).

For Cerberus, the % of beating EB (Cripto-/- ES cells transfected with Cerberus, EBs treated with recombinant Cripto) (% of beating EB) was 10.3.

On to Cerberus-Short (CerS), for which the % of beating EB (Cripto-/- ES cells transfected with Cerberus-S, EBs treated with recombinant Cripto) (% of beating EB) was 8.3.

(Values after patent US20080159989A1.)
